{"source": "paper PMC2627783", "origin": "cited, not measured here", "target": "IscU (Escherichia coli) (UniProt P0ACD4)", "sequence (P0ACD4 whole entry)": "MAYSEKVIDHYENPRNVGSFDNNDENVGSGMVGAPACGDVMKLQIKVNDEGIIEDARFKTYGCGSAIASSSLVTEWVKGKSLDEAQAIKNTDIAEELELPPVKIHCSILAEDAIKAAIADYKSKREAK", "assay": "ITC", "data": [{"substance": "HscB (from UniProt P0A6L9)", "values": [{"measurement": "Kd", "value": 10, "unit": "µM"}]}]}
